Assay results as given in patent publication US20060019893.

Biological target: human FX, P00742
Sequence (P00742 whole entry, looked up): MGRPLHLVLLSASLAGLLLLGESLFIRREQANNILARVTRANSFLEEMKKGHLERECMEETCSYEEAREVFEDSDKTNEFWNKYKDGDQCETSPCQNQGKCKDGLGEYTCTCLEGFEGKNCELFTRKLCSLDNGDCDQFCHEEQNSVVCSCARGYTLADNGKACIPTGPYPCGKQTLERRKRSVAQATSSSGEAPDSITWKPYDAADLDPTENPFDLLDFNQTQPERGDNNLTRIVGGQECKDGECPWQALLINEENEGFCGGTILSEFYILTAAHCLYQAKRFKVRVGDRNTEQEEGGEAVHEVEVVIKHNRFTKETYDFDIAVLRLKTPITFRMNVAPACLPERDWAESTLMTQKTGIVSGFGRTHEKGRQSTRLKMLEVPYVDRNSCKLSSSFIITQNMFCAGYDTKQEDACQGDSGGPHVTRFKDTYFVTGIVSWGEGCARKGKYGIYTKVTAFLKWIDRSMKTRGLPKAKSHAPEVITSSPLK

B1: wildtype FVIIa (protein)
chain 1: ANAFLEELRPGSLERECKEEQCSFEEAREIFKDAERTKLFWISYSDGDQCASSPCQNGGSCKDQLQSYICFCLPAFEGRNCETHKDDQLICVNENGGCEQYCSDHTGTKRSCRCHEGYSLLADGVSCTPTVEYPCGKIPILEKRNASKPQGR
chain 2: IVGGKVCPKGECPWQVLLLVNGAQLCGGTLINTIWVVSAAHCFDKIKNWRNLIAVLGEHDLSEHDGDEQSRRVAQVIIPSTYVPGTTNHDIALLRLHQPVVLTDHVVPLCLPERTFSERTLAFVRFSLVSGWGQLLDRGATALELMVLNVPRLMTQDCLQQSRKVGDSPNITEYMFCAGYSDGSKDSCKGDSGGPHATHYRGTWYLTGIVSWGQGCATVGHFGVYTRVSQYIEWLQKLMRSEPRPGVLLRAPFP
- Km, FX activation by relipidated TF•FVIIa (0.4 nM relipidated TF, 1 nM FVIIa): 0.13 µM
- Vmax, FX activation by relipidated TF•FVIIa (0.4 nM relipidated TF, 1 nM FVIIa): 600 mOD405/min
- Vmax/Km, FX activation by relipidated TF•FVIIa (mOD405/min/nM): 4.6
